Reference: the Human Domainome abundance scans (Beltran et al. 2025)
± gives the uncertainty stated by the source.

B1: Histone-lysine N-methyltransferase 2A, residues 1148 to 1194; numbered along this chain, Q03164 (parent)
chain: KGRRSRRCGQCPGCQVPEDCGVCTNCLDKPKFGGRNIKKQCCKMRKC

Variants of: B1
Experiment: abundance fitness (aPCA) (normalised: wild type 0, dead -1); higher = more abundant; growth selection in yeast, the domain comes from the species named
Conditions: Homo sapiens

Variant | abundance fitness
KGRRSRRCGQCPGCQVPEDCGVCTNCLDKPKFGGRNIKAQCCKMRKC [K39A] | -0.074 ± 0.1
KGRRSRRCGQCPGCQVPEDCGVCTNCLDKPKFGGRNIKIQCCKMRKC [K39I] | -0.161 ± 0.15
KGRRSRRCGQCPGCQVPEDCGVCTNCLDKPKFGGRNIKTQCCKMRKC [K39T] | -0.187 ± 0.12
KGRRSRRCGQCPGCQVPEDCGVCTNCLDKPKFGGRNIKCQCCKMRKC [K39C] | -0.2 ± 0.11
KGRRSRRCGQCPGCQVPEDCGVCTNCLDKPKFGGRNIKPQCCKMRKC [K39P] | -0.06 ± 0.1
KGRRSRRCGQCPGCQVPEDCGVCTNCLDKPKFGGRNIKSQCCKMRKC [K39S] | 0.007 ± 0.093
KGRRSRRCGQCPGCQVPEDCGVCTNCLDKPKFGGRNIKNQCCKMRKC [K39N] | -0.35 ± 0.17
KGRRSRRCGQCPGCQVPEDCGVCTNCLDKPKFGGRNIKGQCCKMRKC [K39G] | -0.004 ± 0.076
KGRRSRRCGQCPGCQVPEDCGVCTNCLDKPKFGGRNIKEQCCKMRKC [K39E] | 0.156 ± 0.13
KGRRSRRCGQCPGCQVPEDCGVCTNCLDKPKFGGRNIKDQCCKMRKC [K39D] | 0.101 ± 0.14
KGRRSRRCGQCPGCQVPEDCGVCTNCLDKPKFGGRNIKYQCCKMRKC [K39Y] | -0.683 ± 0.21
KGRRSRRCGQCPGCQVPEDCGVCTNCLDKPKFGGRNIKMQCCKMRKC [K39M] | -0.124 ± 0.12
KGRRSRRCGQCPGCQVPEDCGVCTNCLDKPKFGGRNIKVQCCKMRKC [K39V] | 0.063 ± 0.083
KGRRSRRCGQCPGCQVPEDCGVCTNCLDKPKFGGRNIKRQCCKMRKC [K39R] | -0.185 ± 0.086
KGRRSRRCGQCPGCQVPEDCGVCTNCLDKPKFGGRNIKLQCCKMRKC [K39L] | -0.086 ± 0.091
KGRRSRRCGQCPGCQVPEDCGVCTNCLDKPKFGGRNIKHQCCKMRKC [K39H] | -0.11 ± 0.17
KGRRSRRCGQCPGCQVPEDCGVCTNCLDKPKFGGRNIKWQCCKMRKC [K39W] | -0.416 ± 0.11
KGRRSRRCGQCPGCQVPEDCGVCTNCLDKPKFGGRNIKQQCCKMRKC [K39Q] | 0.042 ± 0.11
KGRRSRRCGQCPGCQVPEDCGVCTNCLDKPKFGGRNIDKQCCKMRKC [K38D] | -0.111 ± 0.16
KGRRSRRCGQCPGCQVPEDCGVCTNCLDKPKFGGRNIFKQCCKMRKC [K38F] | -0.125 ± 0.16
KGRRSRRCGQCPGCQVPEDCGVCTNCLDKPKFGGRNITKQCCKMRKC [K38T] | -0.221 ± 0.12
KGRRSRRCGQCPGCQVPEDCGVCTNCLDKPKFGGRNILKQCCKMRKC [K38L] | 0.143 ± 0.088
KGRRSRRCGQCPGCQVPEDCGVCTNCLDKPKFGGRNIMKQCCKMRKC [K38M] | -0.136 ± 0.15
KGRRSRRCGQCPGCQVPEDCGVCTNCLDKPKFGGRNIGKQCCKMRKC [K38G] | -0.35 ± 0.095
KGRRSRRCGQCPGCQVPEDCGVCTNCLDKPKFGGRNIPKQCCKMRKC [K38P] | -0.29 ± 0.14
KGRRSRRCGQCPGCQVPEDCGVCTNCLDKPKFGGRNICKQCCKMRKC [K38C] | -0.363 ± 0.12
KGRRSRRCGQCPGCQVPEDCGVCTNCLDKPKFGGRNISKQCCKMRKC [K38S] | -0.011 ± 0.095
KGRRSRRCGQCPGCQVPEDCGVCTNCLDKPKFGGRNIEKQCCKMRKC [K38E] | -0.166 ± 0.12

Variant | abundance fitness
KGRRSRRCGQCPGCQVPEDCGVCTNCLDKPKFGGRNIAKQCCKMRKC [K38A] | -0.099 ± 0.096
KGRRSRRCGQCPGCQVPEDCGVCTNCLDKPKFGGRNIQKQCCKMRKC [K38Q] | -0.348 ± 0.15
KGRRSRRCGQCPGCQVPEDCGVCTNCLDKPKFGGRNIIKQCCKMRKC [K38I] | 0.275 ± 0.2
KGRRSRRCGQCPGCQVPEDCGVCTNCLDKPKFGGRNIRKQCCKMRKC [K38R] | -0.036 ± 0.085
KGRRSRRCGQCPGCQVPEDCGVCTNCLDKPKFGGRNIWKQCCKMRKC [K38W] | -0.245 ± 0.14
KGRRSRRCGQCPGCQVPEDCGVCTNCLDKPKFGGRNIKKDCCKMRKC [Q40D] | -0.03 ± 0.17
KGRRSRRCGQCPGCQVPEDCGVCTNCLDKPKFGGRNIKKGCCKMRKC [Q40G] | 0.034 ± 0.08
KGRRSRRCGQCPGCQVPEDCGVCTNCLDKPKFGGRNIKKMCCKMRKC [Q40M] | -0.138 ± 0.14
KGRRSRRCGQCPGCQVPEDCGVCTNCLDKPKFGGRNIKKFCCKMRKC [Q40F] | -0.089 ± 0.2
KGRRSRRCGQCPGCQVPEDCGVCTNCLDKPKFGGRNIKKKCCKMRKC [Q40K] | -0.249 ± 0.15
KGRRSRRCGQCPGCQVPEDCGVCTNCLDKPKFGGRNIKKECCKMRKC [Q40E] | 0.312 ± 0.13
KGRRSRRCGQCPGCQVPEDCGVCTNCLDKPKFGGRNIKKLCCKMRKC [Q40L] | -0.177 ± 0.1
KGRRSRRCGQCPGCQVPEDCGVCTNCLDKPKFGGRNIKKACCKMRKC [Q40A] | -0.317 ± 0.11
KGRRSRRCGQCPGCQVPEDCGVCTNCLDKPKFGGRNIKKNCCKMRKC [Q40N] | -0.461 ± 0.27
KGRRSRRCGQCPGCQVPEDCGVCTNCLDKPKFGGRNIKKSCCKMRKC [Q40S] | -0.103 ± 0.097
KGRRSRRCGQCPGCQVPEDCGVCTNCLDKPKFGGRNIKKHCCKMRKC [Q40H] | -0.312 ± 0.18
KGRRSRRCGQCPGCQVPEDCGVCTNCLDKPKFGGRNIKKRCCKMRKC [Q40R] | -0.229 ± 0.084
KGRRSRRCGQCPGCQVPEDCGVCTNCLDKPKFGGRNIKKCCCKMRKC [Q40C] | -0.284 ± 0.14
KGRRSRRCGQCPGCQVPEDCGVCTNCLDKPKFGGRNIKKPCCKMRKC [Q40P] | -0.512 ± 0.14
KGRRSRRCGQCPGCQVPEDCGVCTNCLDKPKFGGRNIKKICCKMRKC [Q40I] | -0.772 ± 0.29
KGRRSRRCGQCPGCQVPEDCGVCTNCLDKPKFGGRNRKKQCCKMRKC [I37R] | -0.421 ± 0.082
KGRRSRRCGQCPGCQVPEDCGVCTNCLDKPKFGGRNSKKQCCKMRKC [I37S] | 0.037 ± 0.084
KGRRSRRCGQCPGCQVPEDCGVCTNCLDKPKFGGRNVKKQCCKMRKC [I37V] | 0.02 ± 0.078
KGRRSRRCGQCPGCQVPEDCGVCTNCLDKPKFGGRNYKKQCCKMRKC [I37Y] | -0.265 ± 0.22
KGRRSRRCGQCPGCQVPEDCGVCTNCLDKPKFGGRNTKKQCCKMRKC [I37T] | -0.153 ± 0.13
KGRRSRRCGQCPGCQVPEDCGVCTNCLDKPKFGGRNWKKQCCKMRKC [I37W] | -0.431 ± 0.099
KGRRSRRCGQCPGCQVPEDCGVCTNCLDKPKFGGRNQKKQCCKMRKC [I37Q] | -0.024 ± 0.15
